Here are results for 75 variants from paper PMC12102759 (2025).

First the molecules themselves.
B1: CBL peptide 538-553 (E3 ubiquitin-protein ligase CBL), 16-mer library wild type / YES SH3 (YES1 SH3 domain, residues 90-152) (parent complex)
chain 1: TLRDLPPPPPPDRPYS
chain 2: not shown
B2: PAIP1 peptide 124-139 (Polyadenylate-binding protein-interacting protein 1), 16-mer library wild type / PABPC1 PABC (PABPC1 PABC domain, residues 544-623) (parent complex)
chain 1: LMSKLSVNAPEFYPSG
chain 2: PLTASMLASAPPQEQKQMLGERLFPLIQAMHPTLAGKITGMLLEIDNSELLHMLESPESLRSKVDEAVAVLQAHQAKEAA

The variants in the first test derive from B1. The test can be described thus: proteomic peptide phage display deep mutational scan (ProP-PD DMS): M13 P8 16-mer library selected against immobilised GST-tagged bait for four days (rounds), NGS of the eluted pools per day and pseudo-replica; bait immobilised on MaxiSorp plates (10 µg), library pre-cleared on GST, 2 h binding at 4 °C, five washes; one round per day, days 1-4; value from days 2 and 3.
Regarding chain 1 D12S, the screen value was 0.000329 average fractional NGS count over selection days 2 and 3 (reads of this peptide / all reads for the bait, averaged over ….
As to chain 1 S16T, the screen value is 0.000743 average fractional NGS count over selection days 2 and 3 (reads of this peptide / all reads for the bait, averaged over ….
Still for that read-out and setting: under chain 1 S16W stands 0.00897 average fractional NGS count over selection days 2 and 3 (reads of this peptide / all reads for the bait, averaged over …; under chain 1 P10V, 0.00306 average fractional NGS count over selection days 2 and 3 (reads of this peptide / all reads for the bait, averaged over ….
For the variant chain 1 L5Q, the screen value was 0.000137 average fractional NGS count over selection days 2 and 3 (reads of this peptide / all reads for the bait, averaged over ….
On the same count and under the same terms, under chain 1 P8A stands 9.08e-05 average fractional NGS count over selection days 2 and 3 (reads of this peptide / all reads for the bait, averaged over …; under chain 1 P6M, 0.000156 average fractional NGS count over selection days 2 and 3 (reads of this peptide / all reads for the bait, averaged over …; under chain 1 L2Y, 0.00467 average fractional NGS count over selection days 2 and 3 (reads of this peptide / all reads for the bait, averaged over ….
The same measure, in the same setting: under chain 1 R3Y stands 0.000386 average fractional NGS count over selection days 2 and 3 (reads of this peptide / all reads for the bait, averaged over …; under chain 1 D4N, 0.00132 average fractional NGS count over selection days 2 and 3 (reads of this peptide / all reads for the bait, averaged over ….
Same read-out and setting: under chain 1 R13L stands 0.00161 average fractional NGS count over selection days 2 and 3 (reads of this peptide / all reads for the bait, averaged over ….
With chain 1 P7Y, the screen value is 0.000234 average fractional NGS count over selection days 2 and 3 (reads of this peptide / all reads for the bait, averaged over ….
chain 1 Y15A: the screen value is 0.00482 average fractional NGS count over selection days 2 and 3 (reads of this peptide / all reads for the bait, averaged over ….
The same measure, in the same setting: under chain 1 Y15E stands 9.17e-05 average fractional NGS count over selection days 2 and 3 (reads of this peptide / all reads for the bait, averaged over …; under chain 1 Y15G, 0.000388 average fractional NGS count over selection days 2 and 3 (reads of this peptide / all reads for the bait, averaged over …; under chain 1 Y15H, 0.0004 average fractional NGS count over selection days 2 and 3 (reads of this peptide / all reads for the bait, averaged over ….

The variants in a further test derive from B2. The description is as above.
With chain 1 S3E, the screen value is 0.000689 average fractional NGS count over selection days 2 and 3 (reads of this peptide / all reads for the bait, averaged over ….
The same measure, in the same setting: under chain 1 S3V stands 0.00074 average fractional NGS count over selection days 2 and 3 (reads of this peptide / all reads for the bait, averaged over ….
The same measure, in the same setting: the result for chain 1 S3D reads 0.000994 average fractional NGS count over selection days 2 and 3 (reads of this peptide / all reads for the bait, averaged over …; that for chain 1 S3L, 0.000356 average fractional NGS count over selection days 2 and 3 (reads of this peptide / all reads for the bait, averaged over …; that for chain 1 S3W, 0.00081 average fractional NGS count over selection days 2 and 3 (reads of this peptide / all reads for the bait, averaged over ….
With chain 1 Y13T, the screen value is 0.00149 average fractional NGS count over selection days 2 and 3 (reads of this peptide / all reads for the bait, averaged over ….
Same read-out and setting: under chain 1 Y13H stands 0.000948 average fractional NGS count over selection days 2 and 3 (reads of this peptide / all reads for the bait, averaged over ….
On the same count and under the same terms, the result for chain 1 Y13L reads 0.00572 average fractional NGS count over selection days 2 and 3 (reads of this peptide / all reads for the bait, averaged over …; that for chain 1 Y13A, 0.001 average fractional NGS count over selection days 2 and 3 (reads of this peptide / all reads for the bait, averaged over …; that for chain 1 Y13W, 0.00367 average fractional NGS count over selection days 2 and 3 (reads of this peptide / all reads for the bait, averaged over ….
Same read-out and setting: under chain 1 Y13Q stands 0.00152 average fractional NGS count over selection days 2 and 3 (reads of this peptide / all reads for the bait, averaged over …; under chain 1 L5M, 0.0192 average fractional NGS count over selection days 2 and 3 (reads of this peptide / all reads for the bait, averaged over …; under chain 1 L5W, 0.000754 average fractional NGS count over selection days 2 and 3 (reads of this peptide / all reads for the bait, averaged over ….
For chain 1 E11V, the screen value was 0.00325 average fractional NGS count over selection days 2 and 3 (reads of this peptide / all reads for the bait, averaged over ….
As for chain 1 E11P, the screen value is 0.000423 average fractional NGS count over selection days 2 and 3 (reads of this peptide / all reads for the bait, averaged over ….
On the same count and under the same terms, under chain 1 E11D stands 0.000612 average fractional NGS count over selection days 2 and 3 (reads of this peptide / all reads for the bait, averaged over …; under chain 1 E11S, 0.00171 average fractional NGS count over selection days 2 and 3 (reads of this peptide / all reads for the bait, averaged over ….
On the same count and under the same terms, under chain 1 E11Y stands 0.000125 average fractional NGS count over selection days 2 and 3 (reads of this peptide / all reads for the bait, averaged over ….
chain 1 E11A: the screen value is 0.00172 average fractional NGS count over selection days 2 and 3 (reads of this peptide / all reads for the bait, averaged over ….
The same measure, in the same setting: under chain 1 N8E stands 0.000334 average fractional NGS count over selection days 2 and 3 (reads of this peptide / all reads for the bait, averaged over …; under chain 1 N8L, 0.00116 average fractional NGS count over selection days 2 and 3 (reads of this peptide / all reads for the bait, averaged over ….
Turning to chain 1 N8Y, the screen value is 0.000292 average fractional NGS count over selection days 2 and 3 (reads of this peptide / all reads for the bait, averaged over ….
On the same count and under the same terms, under chain 1 N8T stands 0.00351 average fractional NGS count over selection days 2 and 3 (reads of this peptide / all reads for the bait, averaged over …; under chain 1 N8M, 0.000551 average fractional NGS count over selection days 2 and 3 (reads of this peptide / all reads for the bait, averaged over ….
chain 1 P10R: the screen value was 0.000887 average fractional NGS count over selection days 2 and 3 (reads of this peptide / all reads for the bait, averaged over ….
Still for that read-out and setting: the result for chain 1 P10N reads 0.00136 average fractional NGS count over selection days 2 and 3 (reads of this peptide / all reads for the bait, averaged over …; that for chain 1 P10D, 0.00221 average fractional NGS count over selection days 2 and 3 (reads of this peptide / all reads for the bait, averaged over …; that for chain 1 P10K, 0.000696 average fractional NGS count over selection days 2 and 3 (reads of this peptide / all reads for the bait, averaged over ….
In the case of chain 1 P10I, the screen value was 0.000358 average fractional NGS count over selection days 2 and 3 (reads of this peptide / all reads for the bait, averaged over ….
In the case of chain 1 P10Q, the screen value was 0.000419 average fractional NGS count over selection days 2 and 3 (reads of this peptide / all reads for the bait, averaged over ….
For the variant chain 1 V7A, the screen value is 0.00224 average fractional NGS count over selection days 2 and 3 (reads of this peptide / all reads for the bait, averaged over ….
On the same count and under the same terms, the result for chain 1 V7S reads 0.00035 average fractional NGS count over selection days 2 and 3 (reads of this peptide / all reads for the bait, averaged over …; that for chain 1 V7H, 0.00381 average fractional NGS count over selection days 2 and 3 (reads of this peptide / all reads for the bait, averaged over …; that for chain 1 P14M, 0.000928 average fractional NGS count over selection days 2 and 3 (reads of this peptide / all reads for the bait, averaged over ….
On to chain 1 P14A, for which the screen value is 0.0008 average fractional NGS count over selection days 2 and 3 (reads of this peptide / all reads for the bait, averaged over ….
Still for that read-out and setting: the result for chain 1 P14Q reads 0.000256 average fractional NGS count over selection days 2 and 3 (reads of this peptide / all reads for the bait, averaged over …; that for chain 1 F12Y, 0.00127 average fractional NGS count over selection days 2 and 3 (reads of this peptide / all reads for the bait, averaged over ….
Still for that read-out and setting: the result for chain 1 K4M reads 0.000922 average fractional NGS count over selection days 2 and 3 (reads of this peptide / all reads for the bait, averaged over ….
For the variant chain 1 K4I, the screen value is 0.000664 average fractional NGS count over selection days 2 and 3 (reads of this peptide / all reads for the bait, averaged over ….
Same read-out and setting: the result for chain 1 K4R reads 0.000924 average fractional NGS count over selection days 2 and 3 (reads of this peptide / all reads for the bait, averaged over …; that for chain 1 K4D, 0.000813 average fractional NGS count over selection days 2 and 3 (reads of this peptide / all reads for the bait, averaged over ….
As for chain 1 K4Q, the screen value was 0.00289 average fractional NGS count over selection days 2 and 3 (reads of this peptide / all reads for the bait, averaged over ….
On the same count and under the same terms, under chain 1 S15D stands 0.00256 average fractional NGS count over selection days 2 and 3 (reads of this peptide / all reads for the bait, averaged over ….
Take chain 1 S15W: the screen value was 0.000557 average fractional NGS count over selection days 2 and 3 (reads of this peptide / all reads for the bait, averaged over ….
The same measure, in the same setting: the result for chain 1 S15V reads 0.00767 average fractional NGS count over selection days 2 and 3 (reads of this peptide / all reads for the bait, averaged over ….
On the same count and under the same terms, under chain 1 S15I stands 0.000837 average fractional NGS count over selection days 2 and 3 (reads of this peptide / all reads for the bait, averaged over …; under chain 1 S15T, 0.000722 average fractional NGS count over selection days 2 and 3 (reads of this peptide / all reads for the bait, averaged over …; under chain 1 S15H, 0.0055 average fractional NGS count over selection days 2 and 3 (reads of this peptide / all reads for the bait, averaged over ….
As to chain 1 S15A, the screen value was 0.00144 average fractional NGS count over selection days 2 and 3 (reads of this peptide / all reads for the bait, averaged over ….
Same read-out and setting: under chain 1 S15K stands 0.000858 average fractional NGS count over selection days 2 and 3 (reads of this peptide / all reads for the bait, averaged over …; under chain 1 M2K, 0.000358 average fractional NGS count over selection days 2 and 3 (reads of this peptide / all reads for the bait, averaged over …; under chain 1 M2N, 0.00156 average fractional NGS count over selection days 2 and 3 (reads of this peptide / all reads for the bait, averaged over ….
Turning to chain 1 M2L, the screen value was 0.000374 average fractional NGS count over selection days 2 and 3 (reads of this peptide / all reads for the bait, averaged over ….
On to chain 1 G16Y, for which the screen value is 0.00314 average fractional NGS count over selection days 2 and 3 (reads of this peptide / all reads for the bait, averaged over ….
Still for that read-out and setting: under chain 1 G16K stands 0.000565 average fractional NGS count over selection days 2 and 3 (reads of this peptide / all reads for the bait, averaged over ….
Same read-out and setting: the result for chain 1 G16S reads 0.0008 average fractional NGS count over selection days 2 and 3 (reads of this peptide / all reads for the bait, averaged over …; that for chain 1 G16D, 0.000205 average fractional NGS count over selection days 2 and 3 (reads of this peptide / all reads for the bait, averaged over ….
On the same count and under the same terms, under chain 1 G16N stands 0.000134 average fractional NGS count over selection days 2 and 3 (reads of this peptide / all reads for the bait, averaged over …; under chain 1 G16V, 0.0229 average fractional NGS count over selection days 2 and 3 (reads of this peptide / all reads for the bait, averaged over ….
